# From paper PMC9352680, “A comprehensive thermodynamic model for RNA binding by the Saccharomyces cerevisiae Pumilio protein PUF4”
# T1: PUF4 RNA-binding domain (Saccharomyces cerevisiae, UniProt P25339 537-888)
# T1 sequence: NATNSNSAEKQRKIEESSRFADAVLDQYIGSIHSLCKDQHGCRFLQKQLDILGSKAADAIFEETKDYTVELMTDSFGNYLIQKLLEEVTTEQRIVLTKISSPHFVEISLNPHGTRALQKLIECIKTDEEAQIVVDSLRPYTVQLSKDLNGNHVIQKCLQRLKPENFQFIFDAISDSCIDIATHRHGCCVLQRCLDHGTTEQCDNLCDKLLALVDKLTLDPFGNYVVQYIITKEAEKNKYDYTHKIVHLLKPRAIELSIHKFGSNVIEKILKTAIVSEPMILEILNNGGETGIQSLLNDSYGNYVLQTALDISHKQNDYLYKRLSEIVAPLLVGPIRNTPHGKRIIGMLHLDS
# Target: T1, PUF4 RNA-binding domain
# Experiment: Mg; RNA-MaP; 20 mM Na-HEPES pH 7.4, 30 mM KOAc, 0.75 mM MgCl2, 0.1% Tween-20, 5% glycerol, 0.1 mg/mL BSA, 2 mM DTT; 25 C; 0.0125-409.6 nM protein
# Conditions: tags: N-His6-TEV cleaved; C-SNAP kept, Cy3B-labelled; label: tethered on chip by stalled RNA polymerase
row,Binder,Kd [nM]
1,UCUCUUAUUGUAUAUUAACUCUCUU (ssRNA) [Id_ii_S1_P4E.2_K4.1_C4.2_[C-2A]_H4.1_A4.1_F4.1_T4.2_[G10A]_[T11C]],1.01
2,UCUCUUAUUGUAUAUUACCUCUCUU (ssRNA) [Id_ii_S1_P4E.2_K4.1_C4.2_[C-2A]_H4.1_A4.1_F4.1_T4.2_[G10C]_[T11C]],0.788
3,UCUCUUACUGUAUAUUAUUUCUCUU (ssRNA) [Id_ii_S1_P4E.2_K4.1_C4.2_[C-2A]_[T-1C]_H4.1_A4.1_F4.1_T4.2_[G10T]],1.39
4,UCUCUUCCUGUAUAUUACUUCUCUU (ssRNA) [Id_ii_S1_P4E.2_K4.1_C4.2_[T-1C]_H4.1_A4.1_F4.1_T4.2_[G10C]],0.91
5,UCUCUUAUUGUAUAUUAGCUCUCUU (ssRNA) [Id_ii_S1_P4E.2_K4.1_C4.2_[C-2A]_H4.1_A4.1_F4.1_T4.2_[T11C]],0.714
6,UCUCUUUUUGUAUAUUAAUUCUCUU (ssRNA) [Id_ii_S1_P4E.2_K4.1_C4.2_[C-2T]_H4.1_A4.1_F4.1_T4.2_[G10A]],1.09
7,UCUCUUAAUGUAUAUUACCUCUCUU (ssRNA) [Id_ii_S1_P4E.2_K4.1_C4.2_[C-2A]_[T-1A]_H4.1_A4.1_F4.1_T4.2_[G10C]_[T11C]],2.09
8,UCUCUUCCUGUAUAUUAUAUCUCUU (ssRNA) [Id_ii_S1_P4E.2_K4.1_C4.2_[T-1C]_H4.1_A4.1_F4.1_T4.2_[G10T]_[T11A]],0.96
9,UCUCUUAGUGUAUAUUAUUUCUCUU (ssRNA) [Id_ii_S1_P4E.2_K4.1_C4.2_[C-2A]_[T-1G]_H4.1_A4.1_F4.1_T4.2_[G10T]],2.57
10,UCUCUUUUUGUAUAUUAAAUCUCUU (ssRNA) [Id_ii_S1_P4E.2_K4.1_C4.2_[C-2T]_H4.1_A4.1_F4.1_T4.2_[G10A]_[T11A]],1.21
11,UCUCUUUUUGUAUAUUAGUUCUCUU (ssRNA) [Id_ii_S1_P4E.2_K4.1_C4.2_[C-2T]_H4.1_A4.1_F4.1_T4.2],0.256
12,UCUCUUCCUGUAUAUUAGUUCUCUU (ssRNA) [Id_ii_S1_P4E.2_K4.1_C4.2_[T-1C]_H4.1_A4.1_F4.1_T4.2],0.262
13,UCUCUUACUGUAUAUUACUUCUCUU (ssRNA) [Id_ii_S1_P4E.2_K4.1_C4.2_[C-2A]_[T-1C]_H4.1_A4.1_F4.1_T4.2_[G10C]],1.6
14,UCUCUUAUUGUAUAUUAAUUCUCUU (ssRNA) [Id_ii_S1_P4E.2_K4.1_C4.2_[C-2A]_H4.1_A4.1_F4.1_T4.2_[G10A]],1.16
15,UCUCUUCCUGUAUAUUAAAUCUCUU (ssRNA) [Id_ii_S1_P4E.2_K4.1_C4.2_[T-1C]_H4.1_A4.1_F4.1_T4.2_[G10A]_[T11A]],1.26
16,UCUCUUCAUGUAUAUUAAAUCUCUU (ssRNA) [Id_ii_S1_P4E.2_K4.1_C4.2_[T-1A]_H4.1_A4.1_F4.1_T4.2_[G10A]_[T11A]],1.57
17,UCUCUUCCUGUAUAUUAUUUCUCUU (ssRNA) [Id_ii_S1_P4E.2_K4.1_C4.2_[T-1C]_H4.1_A4.1_F4.1_T4.2_[G10T]],0.724
18,UCUCUUCAUGUAUAUUAUCUCUCUU (ssRNA) [Id_ii_S1_P4E.2_K4.1_C4.2_[T-1A]_H4.1_A4.1_F4.1_T4.2_[G10T]_[T11C]],0.967
19,UCUCUUCCUGUAUAUUAACUCUCUU (ssRNA) [Id_ii_S1_P4E.2_K4.1_C4.2_[T-1C]_H4.1_A4.1_F4.1_T4.2_[G10A]_[T11C]],0.991

row,Binder,Kd [nM]
1,UCUCUUAUUGUAUAUUAUGUCUCUU (ssRNA) [Id_ii_S1_P4E.2_K4.1_C4.2_[C-2A]_H4.1_A4.1_F4.1_T4.2_[G10T]_[T11G]],1.27
2,UCUCUUUGCAUAGUAUCUCUU (ssRNA) [Ib_S1_P4E.1_K4.1_C4.1_H4.1_[T3C]_A4.1_[T7G]_F4.1_T4.1],647
3,UCUCUUAUUGUAUAUUACUUCUCUU (ssRNA) [Id_ii_S1_P4E.2_K4.1_C4.2_[C-2A]_H4.1_A4.1_F4.1_T4.2_[G10C]],1.16
4,UCUCUUCAUGUAUAUUAAGUCUCUU (ssRNA) [Id_ii_S1_P4E.2_K4.1_C4.2_[T-1A]_H4.1_A4.1_F4.1_T4.2_[G10A]_[T11G]],2.41
5,UCUCUUCCUGUAUAUUAAGUCUCUU (ssRNA) [Id_ii_S1_P4E.2_K4.1_C4.2_[T-1C]_H4.1_A4.1_F4.1_T4.2_[G10A]_[T11G]],1.9
6,UCUCUUACUGUAUAUUAUCUCUCUU (ssRNA) [Id_ii_S1_P4E.2_K4.1_C4.2_[C-2A]_[T-1C]_H4.1_A4.1_F4.1_T4.2_[G10T]_[T11C]],1.4
7,UCUCUUUGCAUGUUAUCUCUU (ssRNA) [Ib_S1_P4E.1_K4.1_C4.1_H4.1_[T3C]_A4.1_[A6G]_F4.1_T4.1],2150
8,UCUCUUCCUGUAUAUUAUCUCUCUU (ssRNA) [Id_ii_S1_P4E.2_K4.1_C4.2_[T-1C]_H4.1_A4.1_F4.1_T4.2_[G10T]_[T11C]],0.601
9,UCUCUUCGUGUAUAUUAUUUCUCUU (ssRNA) [Id_ii_S1_P4E.2_K4.1_C4.2_[T-1G]_H4.1_A4.1_F4.1_T4.2_[G10T]],1.19
10,UCUCUUCCUGUAUAUUAAUUCUCUU (ssRNA) [Id_ii_S1_P4E.2_K4.1_C4.2_[T-1C]_H4.1_A4.1_F4.1_T4.2_[G10A]],0.693
11,UCUCUUCGUGUAUAUUAUCUCUCUU (ssRNA) [Id_ii_S1_P4E.2_K4.1_C4.2_[T-1G]_H4.1_A4.1_F4.1_T4.2_[G10T]_[T11C]],0.874
12,UCUCUUCAUGUAUAUUAACUCUCUU (ssRNA) [Id_ii_S1_P4E.2_K4.1_C4.2_[T-1A]_H4.1_A4.1_F4.1_T4.2_[G10A]_[T11C]],1.15
13,UCUCUUAAUGUAUAUUACUUCUCUU (ssRNA) [Id_ii_S1_P4E.2_K4.1_C4.2_[C-2A]_[T-1A]_H4.1_A4.1_F4.1_T4.2_[G10C]],1.68
14,UCUCUUAUUGUAUAUUAUUUCUCUU (ssRNA) [Id_ii_S1_P4E.2_K4.1_C4.2_[C-2A]_H4.1_A4.1_F4.1_T4.2_[G10T]],0.453
15,UCUCUUAAUGUAUAUUAUCUCUCUU (ssRNA) [Id_ii_S1_P4E.2_K4.1_C4.2_[C-2A]_[T-1A]_H4.1_A4.1_F4.1_T4.2_[G10T]_[T11C]],2.38
16,UCUCUUCGUGUAUAUUAAUUCUCUU (ssRNA) [Id_ii_S1_P4E.2_K4.1_C4.2_[T-1G]_H4.1_A4.1_F4.1_T4.2_[G10A]],1.2
17,UCUCUUCAUGUAUAUUACCUCUCUU (ssRNA) [Id_ii_S1_P4E.2_K4.1_C4.2_[T-1A]_H4.1_A4.1_F4.1_T4.2_[G10C]_[T11C]],0.916
18,UCUCUUCAUGUAUAUUACUUCUCUU (ssRNA) [Id_ii_S1_P4E.2_K4.1_C4.2_[T-1A]_H4.1_A4.1_F4.1_T4.2_[G10C]],1.07
19,UCUCUUCGUGUAUAUUAGUUCUCUU (ssRNA) [Id_ii_S1_P4E.2_K4.1_C4.2_[T-1G]_H4.1_A4.1_F4.1_T4.2],0.399

row,Binder,Kd [nM]
1,UCUCUUAUUGUAUAUUAUAUCUCUU (ssRNA) [Id_ii_S1_P4E.2_K4.1_C4.2_[C-2A]_H4.1_A4.1_F4.1_T4.2_[G10T]_[T11A]],1.12
2,UCUCUUAUUGUAUAUUAAAUCUCUU (ssRNA) [Id_ii_S1_P4E.2_K4.1_C4.2_[C-2A]_H4.1_A4.1_F4.1_T4.2_[G10A]_[T11A]],0.655
3,UCUCUUAAUGUAUAUUAUUUCUCUU (ssRNA) [Id_ii_S1_P4E.2_K4.1_C4.2_[C-2A]_[T-1A]_H4.1_A4.1_F4.1_T4.2_[G10T]],1.61
4,UCUCUUAUUGUAUAUUAUCUCUCUU (ssRNA) [Id_ii_S1_P4E.2_K4.1_C4.2_[C-2A]_H4.1_A4.1_F4.1_T4.2_[G10T]_[T11C]],0.846
5,UCUCUUUGCAUACUAUCUCUU (ssRNA) [Ib_S1_P4E.1_K4.1_C4.1_H4.1_[T3C]_A4.1_[T7C]_F4.1_T4.1],117
6,UCUCUUUUUGUAUAUUAGGUCUCUU (ssRNA) [Id_ii_S1_P4E.2_K4.1_C4.2_[C-2T]_H4.1_A4.1_F4.1_T4.2_[T11G]],0.884
7,UCUCUUCGUGUAUAUUAGGUCUCUU (ssRNA) [Id_ii_S1_P4E.2_K4.1_C4.2_[T-1G]_H4.1_A4.1_F4.1_T4.2_[T11G]],0.943
8,UCUCUUAUUGUAUAUUAGUUCUCUU (ssRNA) [Id_ii_S1_P4E.2_K4.1_C4.2_[C-2A]_H4.1_A4.1_F4.1_T4.2],0.431
9,UCUCUUACUGUAUAUUAACUCUCUU (ssRNA) [Id_ii_S1_P4E.2_K4.1_C4.2_[C-2A]_[T-1C]_H4.1_A4.1_F4.1_T4.2_[G10A]_[T11C]],1.47
10,UCUCUUUGCAUCUUAUCUCUU (ssRNA) [Ib_S1_P4E.1_K4.1_C4.1_H4.1_[T3C]_A4.1_[A6C]_F4.1_T4.1],> 2300
11,UCUCUUCCUGUAUAUUAUGUCUCUU (ssRNA) [Id_ii_S1_P4E.2_K4.1_C4.2_[T-1C]_H4.1_A4.1_F4.1_T4.2_[G10T]_[T11G]],1.01
12,UCUCUUACUGUAUAUUACCUCUCUU (ssRNA) [Id_ii_S1_P4E.2_K4.1_C4.2_[C-2A]_[T-1C]_H4.1_A4.1_F4.1_T4.2_[G10C]_[T11C]],1.69
13,UCUCUUACUGUAUAUUAUGUCUCUU (ssRNA) [Id_ii_S1_P4E.2_K4.1_C4.2_[C-2A]_[T-1C]_H4.1_A4.1_F4.1_T4.2_[G10T]_[T11G]],1.34
14,UCUCUUCAUGUAUAUUAUUUCUCUU (ssRNA) [Id_ii_S1_P4E.2_K4.1_C4.2_[T-1A]_H4.1_A4.1_F4.1_T4.2_[G10T]],0.915
15,UCUCUUCAUGUAUAUUAAUUCUCUU (ssRNA) [Id_ii_S1_P4E.2_K4.1_C4.2_[T-1A]_H4.1_A4.1_F4.1_T4.2_[G10A]],1.1
16,UCUCUUCGUGUAUAUUAAGUCUCUU (ssRNA) [Id_ii_S1_P4E.2_K4.1_C4.2_[T-1G]_H4.1_A4.1_F4.1_T4.2_[G10A]_[T11G]],3.06
17,UCUCUUUUUGUAUAUUAGCUCUCUU (ssRNA) [Id_ii_S1_P4E.2_K4.1_C4.2_[C-2T]_H4.1_A4.1_F4.1_T4.2_[T11C]],0.413
18,UCUCUUUGCAUUUUAUCUCUU (ssRNA) [Ib_S1_P4E.1_K4.1_C4.1_H4.1_[T3C]_A4.1_[A6T]_F4.1_T4.1],1640
19,UCUCUUACUGUAUAUUAUAUCUCUU (ssRNA) [Id_ii_S1_P4E.2_K4.1_C4.2_[C-2A]_[T-1C]_H4.1_A4.1_F4.1_T4.2_[G10T]_[T11A]],1.83
